Experimental data from patent US20150037340A1 (PEIRRE FABRE MEDICAMENT, published 2015).

Experiments:
[1] = molecular target: T1, human protein Axl (cellular form on the cell surface) (human, UniProt P30530 26-894); test: flow cytometry on MDA-MB-231 cells, goat anti-mouse Alexa 488
T1 construct: also called Axl receptor; membrane Axl receptor
T1 sequence: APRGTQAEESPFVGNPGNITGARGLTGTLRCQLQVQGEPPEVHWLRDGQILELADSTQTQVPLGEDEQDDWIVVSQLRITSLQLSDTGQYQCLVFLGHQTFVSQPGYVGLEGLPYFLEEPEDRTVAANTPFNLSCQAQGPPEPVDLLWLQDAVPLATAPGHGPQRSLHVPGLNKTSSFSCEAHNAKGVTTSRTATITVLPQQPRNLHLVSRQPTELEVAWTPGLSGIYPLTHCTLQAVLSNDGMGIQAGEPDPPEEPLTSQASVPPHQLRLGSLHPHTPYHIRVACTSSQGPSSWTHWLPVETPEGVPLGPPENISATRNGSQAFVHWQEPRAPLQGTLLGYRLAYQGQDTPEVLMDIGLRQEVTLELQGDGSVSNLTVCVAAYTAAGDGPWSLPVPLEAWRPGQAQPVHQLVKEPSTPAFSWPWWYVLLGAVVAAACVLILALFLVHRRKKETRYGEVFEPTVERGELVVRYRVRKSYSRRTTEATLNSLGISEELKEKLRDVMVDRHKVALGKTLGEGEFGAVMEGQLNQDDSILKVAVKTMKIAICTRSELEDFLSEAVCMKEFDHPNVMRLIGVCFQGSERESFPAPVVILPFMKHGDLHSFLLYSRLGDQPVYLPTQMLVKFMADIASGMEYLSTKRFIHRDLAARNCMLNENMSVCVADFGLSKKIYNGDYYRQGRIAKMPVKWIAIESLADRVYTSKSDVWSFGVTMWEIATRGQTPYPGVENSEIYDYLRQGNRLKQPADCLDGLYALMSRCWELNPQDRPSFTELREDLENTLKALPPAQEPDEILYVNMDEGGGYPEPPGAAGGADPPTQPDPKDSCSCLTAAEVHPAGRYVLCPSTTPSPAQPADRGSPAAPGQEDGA
Experimental: (§1) For cell surface binding studies, two fold serial dilutions of a 10 μg/m (6.66 10⁻⁸ M) primary antibody solution (1613F12, MAB154 antibody or mIgG1 isotype control 9G4 Mab) are prepared and are applied on 2.10⁵ cells for 20 min at 4° C. After 3 washes in phosphate-buffered saline (PBS) supplemented with 1% BSA and 0.01% NaN₃, cells were incubated with secondary antibody Goat anti-mouse Alexa 488 (1/500° dilution) for 20 minutes at 4° C. After 3 additional washes in PBS supplemented with 1% BSA and 0.1% NaN₃, cells were analyzed by FACS (Facscalibur, Becton-Dickinson). At least 5000 cells were assessed to calculate the mean value of fluorescence intensity.

[2] = molecular target: T2, recombinant human Mer-Fc (R and D Systems, cat No 891-MR) (human, UniProt Q12866 26-499, limits assumed); test: ELISA on coated rhMer-Fc, detection with goat anti-mouse IgG-HRP
T2 construct: Bought protein; also called rhMer-Fc; rhMer; not shown: Fc portion
T2 sequence (looked up): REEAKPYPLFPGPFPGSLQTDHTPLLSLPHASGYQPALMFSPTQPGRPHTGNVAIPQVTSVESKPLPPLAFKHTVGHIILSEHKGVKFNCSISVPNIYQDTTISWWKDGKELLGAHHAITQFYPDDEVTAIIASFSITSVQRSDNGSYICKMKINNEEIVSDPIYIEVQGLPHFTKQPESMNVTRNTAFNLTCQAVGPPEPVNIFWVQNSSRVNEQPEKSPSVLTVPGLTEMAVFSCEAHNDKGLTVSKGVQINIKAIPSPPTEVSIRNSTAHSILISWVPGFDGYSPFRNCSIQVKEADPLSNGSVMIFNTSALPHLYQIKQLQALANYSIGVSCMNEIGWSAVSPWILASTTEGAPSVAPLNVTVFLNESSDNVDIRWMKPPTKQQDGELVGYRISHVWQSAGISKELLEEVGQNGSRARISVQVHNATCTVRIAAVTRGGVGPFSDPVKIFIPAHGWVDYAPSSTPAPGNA
Experimental: (§2) Then ½ serial dilutions were done over 12 columns. Plates were washed and a goat anti-mouse (Jackson) specific IgG-HRP was added for 1 h at 37° C. Reaction development was performed using the TMB substrate solution. […] Coating controls were performed in presence of a goat anti-human IgG Fc polyclonal serum labelled with HRP (Jackson, ref 109-035-098) and/or in presence of a HRP-coupled anti-Histidine antibody (R and D Systems, ref: MAB050H). Results are represented in FIGS. 2A, 2B and 2C, respectively.

[3] = molecular target: T1, human protein Axl (cellular form on the …); test: flow cytometry on SN12C cells, anti-mouse IgG Alexa488; table under the graph, unit from the axis Log [M]
Experimental: Cells were detached using trypsin and cell concentration was adjusted at 1×10⁶ cells/ml in FACS buffer. A volume of 100 μL of cell suspension was incubated with increasing concentrations of either isotype controls or anti-Axl antibodies for 20 min. at 4° C. Cells were then washed three times with FACS buffer and incubated for 20 min. more using either anti-mouse IgG Alexa488 secondary antibody or anti-human IgG Alexa488 secondary antibody at 4° C. in the dark. Cells were washed three times with FACS buffer and resuspended with 100 μl of FACS buffer before adding propidium iodide.

[4] = molecular target: T3, recombinant human Dtk-Fc (R and D Systems, cat No 859-DK) (human, UniProt Q06418 41-428); test: ELISA on coated rhDtk-Fc, detection with goat anti-mouse IgG-HRP
T3 construct: Bought protein; also called rhDtk-Fc; rhDtk; not shown: Fc portion
T3 sequence (looked up): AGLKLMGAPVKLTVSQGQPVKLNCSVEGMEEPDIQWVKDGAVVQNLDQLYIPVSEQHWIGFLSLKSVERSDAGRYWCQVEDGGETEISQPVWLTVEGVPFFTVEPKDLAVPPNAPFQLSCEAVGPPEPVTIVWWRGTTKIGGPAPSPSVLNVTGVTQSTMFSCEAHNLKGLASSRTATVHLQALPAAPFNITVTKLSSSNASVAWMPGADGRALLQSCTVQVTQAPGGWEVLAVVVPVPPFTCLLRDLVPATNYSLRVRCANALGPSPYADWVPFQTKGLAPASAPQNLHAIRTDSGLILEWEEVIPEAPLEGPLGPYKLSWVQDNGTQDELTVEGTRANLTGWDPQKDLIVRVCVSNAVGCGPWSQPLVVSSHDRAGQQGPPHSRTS
Experimental: as §2

[5] = molecular target: T1, human protein Axl (cellular form on the …); test: flow cytometry on SN12C cells, goat anti-mouse Alexa 488
Experimental: as §1

B1: 1613F12 antibody (murine form) (antibody, V domains shown)
VH: EVHLQQSGAELVKPGASVKLSCTASGFNIRDTYIHWVKQRPEQGLEWIGRLDPANGHTKYGPNFQGRATMTSDTSSNTAYLQLSSLTSEDTAVYYCARGAYYYGSSGLFYFDYWGQGTTLSVSS
VL: DVQITQSPSYLATSPGETITINCRASKSISKYLAWYQEKPGKTNKLLIYSGSTLQSGVPSRFSGSGSGTDFTLTISSLEPEDFAMYFCQQHHEYPLTFGAGTELELK
notes: Whole murine monoclonal antibody purified from a hybridoma; a murine IgG1 (9G4) serves as its isotype control; also called m1613F12; monoclonal antibody 1613F12 derived from the hybridoma I-4505
In the case of B1, the “EC50 (read off the curve)” value [1] is reported as about 1 nM, the binding result [2] is reported as “no binding (tested: log -7.5 M)” and the EC50 [3] is reported as 2.16 nM. The binding result [4] was “no binding (tested: log -7.5 M)” and the “EC50 (read off the curve)” value [5] was about 1 nM.
